The record followed here is patent US20250066503A1, “CELL INJURY INDUCING THERAPEUTIC DRUG FOR USE IN CANCER THERAPY” (CHUGAI SEIYAKU KABUSHIKI KAISHA, priority 2016, published 2025).

For one assay, the target named is T1, human GPC3 (human, UniProt P51654 25-563).
T1 construct: range 25-563; soluble analyte; also called soluble human GPC3; glypican 3
The experiment in a line: SPR. (In general: In SPR one partner is held on a chip, and binding of the other changes the refractive index at the surface.)

Assay [1] addresses T2, soluble human CD3 epsilon chain (human, UniProt P07766 23-126).
T2 construct: also called CD3ε
The experiment in a line: SPR.

T2 sequence (P07766 23-126 limits assumed): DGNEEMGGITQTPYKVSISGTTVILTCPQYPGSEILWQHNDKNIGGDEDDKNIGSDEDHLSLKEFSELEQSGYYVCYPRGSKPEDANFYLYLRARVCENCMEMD
T1 sequence (P51654 25-563 limits assumed): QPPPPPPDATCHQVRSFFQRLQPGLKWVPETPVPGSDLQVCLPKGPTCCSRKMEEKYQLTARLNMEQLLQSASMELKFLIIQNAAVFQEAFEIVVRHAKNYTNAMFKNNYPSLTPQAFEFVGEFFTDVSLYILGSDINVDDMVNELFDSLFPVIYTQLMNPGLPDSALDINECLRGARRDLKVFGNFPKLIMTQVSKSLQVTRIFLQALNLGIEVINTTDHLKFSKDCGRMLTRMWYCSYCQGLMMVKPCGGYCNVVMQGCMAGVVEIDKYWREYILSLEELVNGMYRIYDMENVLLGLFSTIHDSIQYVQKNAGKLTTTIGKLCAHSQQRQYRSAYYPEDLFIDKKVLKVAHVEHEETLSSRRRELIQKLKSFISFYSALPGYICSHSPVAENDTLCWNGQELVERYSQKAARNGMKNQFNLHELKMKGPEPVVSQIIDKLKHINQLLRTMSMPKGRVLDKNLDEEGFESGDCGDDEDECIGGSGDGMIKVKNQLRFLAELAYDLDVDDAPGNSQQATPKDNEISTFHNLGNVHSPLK

B1: CE115HA251-E22Hh/L0000-k0/GL4-E22Hk/H0610-E22L (bispecific antibody, human IgG1, kappa, L234A L235A, N297A)
heavy: QVQLVESGGGVVQPGRSLRLSCAASGFTFSNAWMHWVRQAPGKGLEWVAQIKAKSNNYATYYAESVKGRFTISRDDSKNSLYLQMNSLKTEDTAVYYCRYVHYYYYYGVDAWGQGTTVTVSSASTKGPSVFPLAPSSKSTSGGTAALGCLVKDYFPEPVTVSWNSGALTSGVHTFPAVLQSSGLYSLSSVVTVPSSSLGTQTYICNVNHKPSNTKVDKKVEPKSCDKTHTCPPCPAPEAAGGPSVFLFPPKPKDTLMISRTPEVTCVVVDVSHEDPEVKFNWYVDGVEVHNAKTKPREEQYASTYRVVSVLTVLHQDWLNGKEYKCKVSNKALPAPIEKTISKAKGQPREPQVYTLPPSRCELTKNQVSLSCAVKGFYPSDIAVEWESNGQPENNYKTTPPVLDSDGSFFLVSKLTVDKSRWQQGNVFSCSVMHEALHNHYTQKSLSLSPDYKDDDDK
light: DIVMTQSPLSLPVTPGEPASISCRSSQSLVHSNRNTYLHWYQQKPGQAPRLLIYKVSNRFSGVPDRFSGSGSGTDFTLKISRVEAEDVGVYYCGQGTQVPYTFGQGTKLEIKRTVAAPSVFIFPPSDEQLKSGTASVVCLLNNFYPREAKVQWKVDNALQSGNSQESVTEQDSKDSTYSLSSTLTLSKADYEKHKVYACEVTHQGLSSPVTKSFNRGEC
chain 1: DIVMTQSPLSLPVTPGEPASISCRSSQSLVHSNRNTYLHWYQQKPGQAPRLLIYKVSNRFSGVPDRFSGSGSGTDFTLKISRVEAEDVGVYYCSQNTHVPPTFGQGTKLEIKSSASTKGPSVFPLAPSSKSTSGGTAALGCLVKDYFPEPVTVSWNSGALTSGVHTFPAVLQSSGLYSLSSVVTVPSSSLGTQTYICNVNHKPSNTKVDKKVEPKSCDKTHTCPPCPAPEAAGGPSVFLFPPKPKDTLMISRTPEVTCVVVDVSHEDPEVKFNWYVDGVEVHNAKTKPREEQYASTYRVVSVLTVLHQDWLNGKEYKCKVSNKALPAPIEKTISKAKGQPREPQVCTLPPSRDELTKNQVSLWCLVKGFYPSDIAVEWESNGQPENNYKTTPPVLDSDGSFFLYSKLTVDKSRWQQGNVFSCSVMHEALHNHYTQKSLSLSPHHHHHHHH
chain 2: QVQLVQSGAEVKKPGASVKVSCKASGYTFTDYEMHWIRQPPGQGLEWIGAIDGKTPDTAYSQKFKGRVTLTADKSTSTAYMELSSLTSEDTAVYYCTRFYSYTYWGQGTLVTVSSASVAAPSVFIFPPSDEQLKSGTASVVCLLNNFYPREAKVQWKVDNALQSGNSQESVTEQDSKDSTYSLSSTLTLSKADYEKHKVYACEVTHQGLSSPVTKSFNRGEC
notes: ERY22 format
Take B1: the Kd (usually the constant that tells how readily two partners part at equilibrium) in the assay with human GPC3 was 0.236 nM; in assay [1] it was 13.7 nM.

B2: TR01H015-E22Hh/L0000-k0/GL4-E22Hk/H0610-E22L (bispecific antibody, human IgG1, kappa, L234A L235A, N297A)
heavy: QVQLVESGGGLVQPGRSLRLSCAASGFTFSNAWMHWVRQAPGKGLEWVAQIKGKSNNYATYYAESVKGRFTISRADSKNSIYLQMNSLKTEDTAVYYCRYVHYSASYGVDIWGQGTTVTVSSASTKGPSVFPLAPSSKSTSGGTAALGCLVKDYFPEPVTVSWNSGALTSGVHTFPAVLQSSGLYSLSSVVTVPSSSLGTQTYICNVNHKPSNTKVDKKVEPKSCDKTHTCPPCPAPEAAGGPSVFLFPPKPKDTLMISRTPEVTCVVVDVSHEDPEVKFNWYVDGVEVHNAKTKPREEQYASTYRVVSVLTVLHQDWLNGKEYKCKVSNKALPAPIEKTISKAKGQPREPQVYTLPPSRCELTKNQVSLSCAVKGFYPSDIAVEWESNGQPENNYKTTPPVLDSDGSFFLVSKLTVDKSRWQQGNVFSCSVMHEALHNHYTQKSLSLSPDYKDDDDK
light: DIVMTQSPLSLPVTPGEPASISCRSSQSLVHSNRNTYLHWYQQKPGQAPRLLIYKVSNRFSGVPDRFSGSGSGTDFTLKISRVEAEDVGVYYCGQGTQVPYTFGQGTKLEIKRTVAAPSVFIFPPSDEQLKSGTASVVCLLNNFYPREAKVQWKVDNALQSGNSQESVTEQDSKDSTYSLSSTLTLSKADYEKHKVYACEVTHQGLSSPVTKSFNRGEC
chain 1: DIVMTQSPLSLPVTPGEPASISCRSSQSLVHSNRNTYLHWYQQKPGQAPRLLIYKVSNRFSGVPDRFSGSGSGTDFTLKISRVEAEDVGVYYCSQNTHVPPTFGQGTKLEIKSSASTKGPSVFPLAPSSKSTSGGTAALGCLVKDYFPEPVTVSWNSGALTSGVHTFPAVLQSSGLYSLSSVVTVPSSSLGTQTYICNVNHKPSNTKVDKKVEPKSCDKTHTCPPCPAPEAAGGPSVFLFPPKPKDTLMISRTPEVTCVVVDVSHEDPEVKFNWYVDGVEVHNAKTKPREEQYASTYRVVSVLTVLHQDWLNGKEYKCKVSNKALPAPIEKTISKAKGQPREPQVCTLPPSRDELTKNQVSLWCLVKGFYPSDIAVEWESNGQPENNYKTTPPVLDSDGSFFLYSKLTVDKSRWQQGNVFSCSVMHEALHNHYTQKSLSLSPHHHHHHHH
chain 2: QVQLVQSGAEVKKPGASVKVSCKASGYTFTDYEMHWIRQPPGQGLEWIGAIDGKTPDTAYSQKFKGRVTLTADKSTSTAYMELSSLTSEDTAVYYCTRFYSYTYWGQGTLVTVSSASVAAPSVFIFPPSDEQLKSGTASVVCLLNNFYPREAKVQWKVDNALQSGNSQESVTEQDSKDSTYSLSSTLTLSKADYEKHKVYACEVTHQGLSSPVTKSFNRGEC
notes: ERY22 format
B2: the Kd in the assay with human GPC3 amounted to 0.263 nM; in assay [1], 35.7 nM.

B3: CE115HA236-E22Hh/GLS3108-k0/GL4-E22Hk/H0610-E22L (bispecific antibody, human IgG1, kappa, L234A L235A, N297A)
heavy: QVQLVESGGGVVQPGRSLRLSCAASGFTFSNAWMHWVRQAPGKGLEWVAQIKAKSNNYATYYAESVKGRFTISRDDSKNSLYLQMNSLKTEDTAVYYCRYVHYYAYYGVQAWGQGTTVTVSSASTKGPSVFPLAPSSKSTSGGTAALGCLVKDYFPEPVTVSWNSGALTSGVHTFPAVLQSSGLYSLSSVVTVPSSSLGTQTYICNVNHKPSNTKVDKKVEPKSCDKTHTCPPCPAPEAAGGPSVFLFPPKPKDTLMISRTPEVTCVVVDVSHEDPEVKFNWYVDGVEVHNAKTKPREEQYASTYRVVSVLTVLHQDWLNGKEYKCKVSNKALPAPIEKTISKAKGQPREPQVYTLPPSRCELTKNQVSLSCAVKGFYPSDIAVEWESNGQPENNYKTTPPVLDSDGSFFLVSKLTVDKSRWQQGNVFSCSVMHEALHNHYTQKSLSLSPDYKDDDDK
light: DIVMTQSPLSLPVTPGEPASISCRSSQSLVHSNRNTYLSWYQQKPGQAPRLLIYKVSNRFSGVPDRFSGSGSGTDFTLKISRVEAEDVGVYYCGQGTQVPYTFGQGTKLEIKRTVAAPSVFIFPPSDEQLKSGTASVVCLLNNFYPREAKVQWKVDNALQSGNSQESVTEQDSKDSTYSLSSTLTLSKADYEKHKVYACEVTHQGLSSPVTKSFNRGEC
chain 1: DIVMTQSPLSLPVTPGEPASISCRSSQSLVHSNRNTYLHWYQQKPGQAPRLLIYKVSNRFSGVPDRFSGSGSGTDFTLKISRVEAEDVGVYYCSQNTHVPPTFGQGTKLEIKSSASTKGPSVFPLAPSSKSTSGGTAALGCLVKDYFPEPVTVSWNSGALTSGVHTFPAVLQSSGLYSLSSVVTVPSSSLGTQTYICNVNHKPSNTKVDKKVEPKSCDKTHTCPPCPAPEAAGGPSVFLFPPKPKDTLMISRTPEVTCVVVDVSHEDPEVKFNWYVDGVEVHNAKTKPREEQYASTYRVVSVLTVLHQDWLNGKEYKCKVSNKALPAPIEKTISKAKGQPREPQVCTLPPSRDELTKNQVSLWCLVKGFYPSDIAVEWESNGQPENNYKTTPPVLDSDGSFFLYSKLTVDKSRWQQGNVFSCSVMHEALHNHYTQKSLSLSPHHHHHHHH
chain 2: QVQLVQSGAEVKKPGASVKVSCKASGYTFTDYEMHWIRQPPGQGLEWIGAIDGKTPDTAYSQKFKGRVTLTADKSTSTAYMELSSLTSEDTAVYYCTRFYSYTYWGQGTLVTVSSASVAAPSVFIFPPSDEQLKSGTASVVCLLNNFYPREAKVQWKVDNALQSGNSQESVTEQDSKDSTYSLSSTLTLSKADYEKHKVYACEVTHQGLSSPVTKSFNRGEC
notes: ERY22 format
Take B3: the dissociation constant (Kd) came to 0.267 nM with human GPC3 and 6.08 nM in assay [1].

B4: GPC3_ERY27 (hCE115HA-E22Hh/L0000-k0/GL4-E22Hk/H0000-E22L) (bispecific antibody, human IgG1, kappa, L234A L235A, N297A)
heavy: QVQLVESGGGVVQPGRSLRLSCAASGFTFSNAWMHWVRQAPGKGLEWVAQIKAKSNNYATYYAESVKGRFTISRDDSKNSLYLQMNSLKTEDTAVYYCRYVHYGAYYGVDAWGQGTTVTVSSASTKGPSVFPLAPSSKSTSGGTAALGCLVKDYFPEPVTVSWNSGALTSGVHTFPAVLQSSGLYSLSSVVTVPSSSLGTQTYICNVNHKPSNTKVDKKVEPKSCDKTHTCPPCPAPEAAGGPSVFLFPPKPKDTLMISRTPEVTCVVVDVSHEDPEVKFNWYVDGVEVHNAKTKPREEQYASTYRVVSVLTVLHQDWLNGKEYKCKVSNKALPAPIEKTISKAKGQPREPQVYTLPPSRCELTKNQVSLSCAVKGFYPSDIAVEWESNGQPENNYKTTPPVLDSDGSFFLVSKLTVDKSRWQQGNVFSCSVMHEALHNHYTQKSLSLSPDYKDDDDK
light: DIVMTQSPLSLPVTPGEPASISCRSSQSLVHSNRNTYLHWYQQKPGQAPRLLIYKVSNRFSGVPDRFSGSGSGTDFTLKISRVEAEDVGVYYCGQGTQVPYTFGQGTKLEIKRTVAAPSVFIFPPSDEQLKSGTASVVCLLNNFYPREAKVQWKVDNALQSGNSQESVTEQDSKDSTYSLSSTLTLSKADYEKHKVYACEVTHQGLSSPVTKSFNRGEC
chain 1: DIVMTQSPLSLPVTPGEPASISCRSSQSLVHSNRNTYLHWYQQKPGQAPRLLIYKVSNRFSGVPDRFSGSGSGTDFTLKISRVEAEDVGVYYCSQNTHVPPTFGQGTKLEIKSSASTKGPSVFPLAPSSKSTSGGTAALGCLVKDYFPEPVTVSWNSGALTSGVHTFPAVLQSSGLYSLSSVVTVPSSSLGTQTYICNVNHKPSNTKVDKKVEPKSCDKTHTCPPCPAPEAAGGPSVFLFPPKPKDTLMISRTPEVTCVVVDVSHEDPEVKFNWYVDGVEVHNAKTKPREEQYASTYRVVSVLTVLHQDWLNGKEYKCKVSNKALPAPIEKTISKAKGQPREPQVCTLPPSRDELTKNQVSLWCLVKGFYPSDIAVEWESNGQPENNYKTTPPVLDSDGSFFLYSKLTVDKSRWQQGNVFSCSVMHEALHNHYTQKSLSLSPHHHHHHHH
chain 2: QVQLVQSGAEVKKPGASVKVSCKASGYTFTDYEMHWIRQPPGQGLEWIGAIDPKTGDTAYSQKFKGRVTLTADKSTSTAYMELSSLTSEDTAVYYCTRFYSYTYWGQGTLVTVSSASVAAPSVFIFPPSDEQLKSGTASVVCLLNNFYPREAKVQWKVDNALQSGNSQESVTEQDSKDSTYSLSSTLTLSKADYEKHKVYACEVTHQGLSSPVTKSFNRGEC
notes: ERY22 format
With B4, the Kd with human GPC3 stood at 4.28 nM; in assay [1], 61.6 nM.
